According to patent US20190270815A1 (WUXI BIOLOGICS IRELAND, published 2019):

T1: murine PD-1 (Sino biological) (murine, UniProt Q02242 25-167, limits assumed)
T1 sequence (looked up): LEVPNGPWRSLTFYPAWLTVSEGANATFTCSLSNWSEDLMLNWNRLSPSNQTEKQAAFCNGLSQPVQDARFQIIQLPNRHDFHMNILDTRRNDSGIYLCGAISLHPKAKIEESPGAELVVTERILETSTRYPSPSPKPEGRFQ


Assays:
[1] = target: T2, human PD-1 expressed on cells (human, UniProt Q15116 25-288); experiment: FACS on CHO-S cells expressing human PD-1
T2 construct: whole, on cells; also called PD-1 expressing CHO cell; PD-1 transfected CHO-S cells
Method: (§1) 3.1 Binding affinity of PD-1 antibodies to cell surface PD-1 molecules tested by flow cytometry (FACS): Antibody binding affinity to cell surface PD-1 was performed by FACS analysis. CHO-S cells expressing human PD-1 were transferred in to 96-well U-bottom plates (BD) at a density of 5×10⁵ cells/ml. Tested antibodies were 1:2 serially diluted in wash buffer (1×PBS/1% BSA) and incubated with cells at 4° C. for 1 h. The secondary antibody goat anti-human IgG Fc FITC (3.0 moles FITC per mole IgG, (Jackson Immunoresearch Lab) was added and incubated at 4° C. in the dark for 1 h. The cells were then washed once and resuspended in 1×PBS/1% BSA, and analyzed by flow cytometery (BD). Fluorescence intensity will be converted to bound molecules/cell based on the quantitative beads Quantum™ MESF Kits, Bangs Laboratories, Inc.). KD was calculated using Graphpad Prism5.

[2] = target: T1, murine PD-1 (Sino biological); experiment: ELISA on plate-coated murine PD-1
Method: 3.3.1 Cross-reactivity to cynomolgus PD-1 and murine PD-1: Cross-reactivity was measured by ELISA. Plates (Nunc) were coated with cynomolgus PD-1 (Sino Biological) and murine PD-1 (Sino biological) at 1 μg/ml overnight at 4° C. After blocking and washing, […] antibodies were added to the plates and incubated at room temperature for 1 h. The plates were then washed and subsequently incubated with secondary antibody goat anti rat IgG1 HRP (Bethyl) and goat anti rat IgG2b HRP (Bethyl) for 45 min. After washing, TMB substrate was added and the interaction was stopped by 2M HCl. The absorbance at 450 nm was read using a microplate reader (Molecular Device).

[3] = target: T2, human PD-1 expressed on cells; experiment: FACS on CHO-S cells expressing human PD-1, antibody in formulation buffer
Method: as §1

[4] = target: T2, human PD-1 expressed on cells; experiment: FACS on CHO-S cells expressing human PD-1, antibody in 1xPBS pH 7.4
Method: as §1

T2 sequence (Q15116 25-288): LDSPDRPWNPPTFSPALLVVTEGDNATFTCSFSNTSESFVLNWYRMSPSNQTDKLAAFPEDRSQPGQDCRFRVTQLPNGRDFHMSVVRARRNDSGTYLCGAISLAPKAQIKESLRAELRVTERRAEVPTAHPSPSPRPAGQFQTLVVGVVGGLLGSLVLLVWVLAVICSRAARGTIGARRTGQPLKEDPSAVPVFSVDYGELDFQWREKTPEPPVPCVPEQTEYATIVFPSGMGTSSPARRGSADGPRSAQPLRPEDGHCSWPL

| Binder | EC50 [1] [nM] | binding result [2] | EC50 [3] [nM] | EC50 [4] [nM] |
| --- | --- | --- | --- | --- |
| 1.7.3 hAb (antibody, V domains shown, fully human monoclonal antibody with a human constant region of IgG4 isotype) VH: QLQLQESGPGLVKPSETLTLTCTVSGDSISSTTYYWVWIRQPPGKGLEWIGSISYSGNTYYNPSLKSRVTISVDTSKNHFSLKLSSVAATDTALYYCARHLGYNGRYLPFDYWGQGTLVTVSS VL: QSALTQPASVSGSPGQSITISCTGTSSDVGFYNYVSWYQQHPGKAPELMIYDVTNRPSGVSDRFSGSKSGNTASLTISGLQAEDEADYYCSSYTSISTWVFGGGTKLTVL | ~2 | no binding (tested: 1 g/ml antibodies (so in the source)) | – | – |
| 1.49.9 hAb (antibody, V domains shown, fully human monoclonal antibody with a human constant region of IgG4 isotype) VH: QLQLQESGPGLVKPSETLSLTCTVSGGSISSSTYYWGWIRQPPGKGLEWIGSISYSGSTYYNPSLKSRVTISVDTSKNQFSLKLSSVTDADTAVYYCARHLGYNGRYLPFDYWGQGTLVTVSS VL: QSALTQPASVSGSPGQSITISCTGTSSDVGFYNYVSWYQQHPGKAPEVMIYDVSNRPSGVSDRFSGSKSGNTASLTISGLQAEDEADYYCSSYTSISTWVFGGGTKLTVL | ~2 | no binding (tested: 1 g/ml antibodies (so in the source)) | – | – |
| 1.139.15 hAb (antibody, V domains shown, fully human monoclonal antibody with a human constant region of IgG4 isotype) VH: QLQLQESGPGLVKPSETLSLTCTVSGGSISSTTYYWGWIRQPPGKGLEWIGSISYSGTTYYNPSLKSRVTIPVDTSKNQISLKLSSVTAADTSLYYCARHLGYNSNWYPFDYWGQGTLVTVSS VL: QSALTQPPSVSGSPGQSVTISCTGTSSDVGSYNRVSWYQQPPGTAPEVIIYEVSNRPSGVPDRFSGSKSGNTASLTISGLQAEDEADYYCSSYTSSSTWVFGGGTKLTVL | ~2 | no binding (tested: 1 g/ml antibodies (so in the source)) | – | – |
| 1.153.7 hAb (antibody, V domains shown, fully human monoclonal antibody with a human constant region of IgG4 isotype) VH: EVQLLESGGGLVQPGGSLRLSCAASGFTFSSHAMSWVRQAPGKGLEWVSTITGGGGSIYYADSVKGRFTISRDNSKNTLYLQMNSLRAEDTAVYYCAKNRAGEGYFDYWGQGTLVTVSS VL: SYELTQPLSVSVALGQTARITCGGDNIGNKDVHWYQQKPGQAPVLVIYRDSNRPSGIPEGFSGSNSGNTATLTISRAQAGDEADYYCQVWDSIWVFGGGTKLTVL | ~2 | no binding (tested: 1 g/ml antibodies (so in the source)) | – | – |
| 1.103.11-v2 hAb (antibody, IgG4, V domains shown, human constant region of IgG4 isotype) VH: QLQLQESGPGLVKPSETLTLTCTVSADSISSTTYYWVWIRQPPGKGLEWIGSISYSGSTYYNPSLKSRVTVSVDTSKNQFSLKLNSVAATDTALYYCARHLGYNGRYLPFDYWGQGTLVTVSS VL: QSALTQPASVSGSPGQSITISCTGTSSDVGFYNYVSWYQQHPGKAPELMIYDVSNRPSGVSDRFSGSKSGNTASLTISGLQAEDEADYYCSSYTSISTWVFGGGTKLTVL | – | – | ~3.12 | ~2.52 |
